In patent US20250346665A1 (BEIJING IMMUNOAH PHARMATECH, published 2025):
Like-named read-outs stand apart in the source and are kept apart here.

How the values were obtained:
[1] = molecular target: T1, Human CLDN18.2, NP_001002026.1, claudin-18 isoform 2 [Homo sapiens] (human); assay: flow cytometry on 293T-18.2 cells
[2] = molecular target: T1, Human CLDN18.2, NP_001002026.1, …; assay: flow cytometry titration on 293T-18.2 cells
Method: Each well was washed twice with 400 μl FACS buffer. The secondary antibody of PE anti-mouse IgG Fc was added, and incubated for 1 hour before detection by flow cytometry.

[3] = molecular target: T1, Human CLDN18.2, NP_001002026.1, …; assay: flow cytometry titration on 293T-18.2 cells; remark: listed apart in the source
Method: (§1) 10 μL of each diluted antibody was added to 100 μL of the above cell samples, mixed and incubated at room temperature for 1 hour.
Each well was washed twice with 400 μl FACS buffer. The secondary antibody of the PE anti-human IgG Fc (Biolegend, Cat409304) was added and incubated for 1 hour before detection by flow cytometry.

[4] = molecular target: T1, Human CLDN18.2, NP_001002026.1, …; assay: cell-based or functional assay
[5] = molecular target: T1, Human CLDN18.2, NP_001002026.1, …; assay: flow cytometry titration on 293T-18.2 cells; remark: listed apart in the source
Method: as §1
Each well was washed twice with 400 μl FACS buffer. The secondary antibody of the PE anti-human IgG Fc was added and incubated for 1 hour before detection by flow cytometry.

T1 sequence (chain, as listed by the source limits assumed): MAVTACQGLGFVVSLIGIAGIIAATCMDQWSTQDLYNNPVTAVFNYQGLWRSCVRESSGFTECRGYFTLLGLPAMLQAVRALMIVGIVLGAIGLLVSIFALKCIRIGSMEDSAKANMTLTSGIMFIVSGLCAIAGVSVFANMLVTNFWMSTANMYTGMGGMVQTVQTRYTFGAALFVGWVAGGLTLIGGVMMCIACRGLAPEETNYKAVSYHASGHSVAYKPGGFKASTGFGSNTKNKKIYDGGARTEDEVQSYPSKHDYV

B1: murine anti-CLDN18.2 monoclonal antibody secreted by the hybridoma 7D10-1 (antibody, V domains shown)
VH: QVQLKESGGNLVQPGGSRKLSCAASGFSFSSFGMHWVRQAPEKGLEWVAYISSGSRTIYYADTVKGRFTISRDNAKNTLFLQMTSLRSEDTAMYYCTRYYYGNSFDYWGQGTTLTVSS
VL: DIVMTQAPSSLTVTTGEKVTLACKSSQSLFNTGNQKNYLTWYQQKPGQPPKLLIYWASTRESGVPDRFTGSGSGTAFTLTISSVQAEDLAVYYCQNNYNFPLTFGAGTKLELK
notes: Murine hybridoma antibody detected with PE anti-mouse IgG Fc; also called murine anti-CLDN18.2 antibody
EC50 strength as a multiple of control antibody MAb362 [1]: ~3 fold
EC50 [2]: 0.385 µg/mL

B2: 7D10-1 chimeric antibody (antibody, human IgG1, kappa, L234A L235A, V domains shown)
VH: B1 VH
VL: DIVMTQAPSSLTVTTGEKVTLACKSSQSLFNTGNQKNYLTWYQQKPGQPPKLLIYWASTRESGVPDRFTGSGSGTAFTLTISSVQAEDLAVYYCQNNYNFPLTFGAGTKLELKR
notes: Murine variable regions with a human constant region; also called anti-CLDN18.2 chimeric antibody
EC50 strength as a multiple of control antibody MAb362 [1]: ~10 fold
EC50 [3]: 0.4 µg/mL

B3: 7D10-1 humanized antibody (antibody, V domains shown)
VH: QVQLVESGGGLVKPGGSLRLSCAASGFSFSSFGMHWVRQAPGKGLEWVAYISSGSRTIYYADTVKGRFTISRDNAKNSLYLQMNSLRAEDTAVYYCTRYYYGNSFDYWGQGTTVTVSS
VL: DIQMTQSPSSLSASVGDRVTITCKSSQSLFNTGNQKNYLTWYQQKPGKAPKLLIYWASTRESGVPSRFSGSGSGTDFTLTISSLQPEDFATYYCQNNYNFPLTFGQGTRLEIK
notes: Cloned into the same pQKX1/pQKX2 vectors as the chimeric antibody and detected with PE anti-human IgG Fc; a human IgG1 isotype control was used in the ADCC assay; also called anti-CLDN18.2 humanized antibody
EC50 of ADCC [4]: 180 nM
EC50 strength as a multiple of control antibody MAb362 [1]: ~4 fold
EC50 [5]: 0.909 µg/mL
